Laboratory results: patent US20220364074, “RNA-GUIDED NUCLEASES AND ACTIVE FRAGMENTS AND VARIANTS THEREOF AND METHODS OF USE” (LIFEEDIT THERAPEUTICS, INC., published 2022)

How the values were obtained:
APG06646.1 = target: T1, APG06646.1 (Bacillus sp.); test: cell_activity; PAM NNNNC 3'; conditions: tags: N-term SV40 NLS and 3xFLAG, C-term 2x nucleoplasmin NLS in HEK293T
T1 chain: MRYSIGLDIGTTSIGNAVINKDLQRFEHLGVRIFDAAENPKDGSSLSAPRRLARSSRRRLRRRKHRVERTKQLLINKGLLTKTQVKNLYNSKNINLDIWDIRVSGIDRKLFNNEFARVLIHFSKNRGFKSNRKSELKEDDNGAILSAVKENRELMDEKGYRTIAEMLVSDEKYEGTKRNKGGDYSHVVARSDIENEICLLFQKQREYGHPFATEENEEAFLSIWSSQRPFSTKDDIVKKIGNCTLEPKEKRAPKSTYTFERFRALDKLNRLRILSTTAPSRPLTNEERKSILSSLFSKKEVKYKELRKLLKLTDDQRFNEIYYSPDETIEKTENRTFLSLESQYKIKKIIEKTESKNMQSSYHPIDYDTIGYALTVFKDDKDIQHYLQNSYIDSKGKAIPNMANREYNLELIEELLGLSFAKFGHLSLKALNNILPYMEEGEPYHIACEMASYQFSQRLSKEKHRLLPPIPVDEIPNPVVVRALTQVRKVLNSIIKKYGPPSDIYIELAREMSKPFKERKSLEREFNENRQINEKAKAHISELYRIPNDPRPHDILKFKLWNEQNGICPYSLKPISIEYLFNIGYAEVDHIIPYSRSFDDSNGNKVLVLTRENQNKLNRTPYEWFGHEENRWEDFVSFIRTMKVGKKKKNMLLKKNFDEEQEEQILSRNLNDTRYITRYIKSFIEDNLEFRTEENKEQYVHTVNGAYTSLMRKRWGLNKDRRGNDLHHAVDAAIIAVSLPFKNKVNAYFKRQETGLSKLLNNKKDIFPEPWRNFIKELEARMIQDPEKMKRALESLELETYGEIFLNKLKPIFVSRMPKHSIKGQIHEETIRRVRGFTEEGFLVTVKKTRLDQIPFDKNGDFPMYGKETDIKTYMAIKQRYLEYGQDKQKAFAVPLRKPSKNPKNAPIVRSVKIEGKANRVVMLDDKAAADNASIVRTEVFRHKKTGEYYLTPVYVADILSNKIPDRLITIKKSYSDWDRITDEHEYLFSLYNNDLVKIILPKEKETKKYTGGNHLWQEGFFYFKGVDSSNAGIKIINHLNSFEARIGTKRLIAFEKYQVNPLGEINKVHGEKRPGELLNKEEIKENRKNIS

APG01658.1 = target: T2, APG01658.1 (Staphylococcus sp.); test: cell_activity; PAM SEQ ID NO 44, 3' of target; conditions: tags: N-term SV40 NLS and 3xFLAG, C-term 2x nucleoplasmin NLS in HEK293T
T2 chain: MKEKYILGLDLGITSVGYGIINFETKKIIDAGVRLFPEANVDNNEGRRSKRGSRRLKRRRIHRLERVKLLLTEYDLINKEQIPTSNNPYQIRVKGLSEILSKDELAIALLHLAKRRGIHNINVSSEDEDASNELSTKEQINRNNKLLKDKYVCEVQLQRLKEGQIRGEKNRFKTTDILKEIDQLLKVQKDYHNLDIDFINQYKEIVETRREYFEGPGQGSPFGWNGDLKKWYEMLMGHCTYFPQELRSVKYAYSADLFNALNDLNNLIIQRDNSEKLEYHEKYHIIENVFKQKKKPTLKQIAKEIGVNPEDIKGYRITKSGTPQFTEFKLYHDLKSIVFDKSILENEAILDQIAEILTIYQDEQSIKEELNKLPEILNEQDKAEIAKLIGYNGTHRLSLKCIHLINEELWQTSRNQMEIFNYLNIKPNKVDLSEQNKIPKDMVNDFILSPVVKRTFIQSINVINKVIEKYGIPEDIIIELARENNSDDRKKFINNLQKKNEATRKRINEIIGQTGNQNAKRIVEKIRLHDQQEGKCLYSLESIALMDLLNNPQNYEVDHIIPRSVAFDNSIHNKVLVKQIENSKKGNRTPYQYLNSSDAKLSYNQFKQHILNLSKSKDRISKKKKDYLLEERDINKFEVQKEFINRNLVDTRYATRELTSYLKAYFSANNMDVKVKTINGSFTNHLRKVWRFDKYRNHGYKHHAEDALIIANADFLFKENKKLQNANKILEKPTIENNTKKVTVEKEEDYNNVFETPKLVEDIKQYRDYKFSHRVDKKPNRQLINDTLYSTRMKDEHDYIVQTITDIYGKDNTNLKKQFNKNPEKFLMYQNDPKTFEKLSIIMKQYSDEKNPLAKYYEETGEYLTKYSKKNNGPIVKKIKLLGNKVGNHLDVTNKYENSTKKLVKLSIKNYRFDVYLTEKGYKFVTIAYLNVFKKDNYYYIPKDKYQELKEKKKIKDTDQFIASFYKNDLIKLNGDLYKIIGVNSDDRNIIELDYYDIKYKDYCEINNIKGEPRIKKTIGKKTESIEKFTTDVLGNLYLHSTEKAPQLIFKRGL

B1: guide 450 ; AurkB target 493 (ssRNA ; dsDNA)
RNA: CAUGGCAGUACAUUAGAGCAGCCAUAAUUCCUCUGUAAAACUUAAAGAAGGUUUAUAGAGUUAUUAUGGUAAGGCAAUAUGCCGUGGCGUUGGGGAUCGCCUAUGUCCGGUUUUACCGGAUCUCCCUAAAGGUGACUAACUUUGGUUAGUCACCUUUUU
DNA 1: CATGGCAGTACATTAGAGCA
DNA 2: TGCTCTAATGTACTGCCATG
B1 was tested, and the activity (APG06646.1) was 7.94 % editing.

B2: guide 451 ; TRA target 512 (ssRNA ; dsDNA)
RNA: CCCUGGCUGUGCACAUUCCCUCCUGGCCAUAAUUCCUCUGUAAAACUUAAAGAAGGUUUAUAGAGUUAUUAUGGUAAGGCAAUAUGCCGUGGCGUUGGGGAUCGCCUAUGUCCGGUUUUACCGGAUCUCCCUAAAGGUGACUAACUUUGGUUAGUCACCUUUUU
DNA 1: CCCTGGCTGTGCACATTCCCTCCTG
DNA 2: CAGGAGGGAATGTGCACAGCCAGGG
With B2 the activity (APG06646.1) was 7.03 % editing.

B3: guide 462 ; AurkB target 523 (ssRNA ; dsDNA)
RNA: GUUUUAAUGGCCCAGCCUCACACCCGCCAUAAUUCCUCUGUAAAACUUAAAGAAGGUUUAUAGAGUUAUUAUGGUAAGGCAAUAUGCCGUGGCGUUGGGGAUCGCCUAUGUCCGGUUUUACCGGAUCUCCCUAAAGGUGACUAACUUUGGUUAGUCACCUUUUU
DNA 1: GTTTTAATGGCCCAGCCTCACACCC
DNA 2: GGGTGTGAGGCTGGGCCATTAAAAC
B3 showed an activity (APG06646.1) of 10.9 % editing.

B4: guide 428 ; AurkB target 491 (ssRNA ; dsDNA)
RNA: GGCUGGGCCAUUAAAACCUCUCCAGUUUUAGUACUCUGUAAUUUUAGGUAUGAAAGUCAUACCUAAAAUUACAGAAUCUACUGAAACAAGACUAUAUGUCGUGUUUAUCCCACUAAUUUAUUAGUGGGAUUUU
DNA 1: GGCTGGGCCATTAAAACCTCTCCA
DNA 2: TGGAGAGGTTTTAATGGCCCAGCC
In the case of B4, the activity (APG01658.1) is reported as 13.1 % editing.

B5: guide 423 ; RelA target 486 (ssRNA ; dsDNA)
RNA: ACAGUGCGCAUCUCCCUGGUCACCGUUUUAGUACUCUGUAAUUUUAGGUAUGAAAGUCAUACCUAAAAUUACAGAAUCUACUGAAACAAGACUAUAUGUCGUGUUUAUCCCACUAAUUUAUUAGUGGGAUUUU
DNA 1: ACAGTGCGCATCTCCCTGGTCACC
DNA 2: GGTGACCAGGGAGATGCGCACTGT
B5 gave an activity (APG01658.1) of 10 % editing.
